From CN113150152A (UNIV XI AN JIAOTONG, dated 2021) come the findings set out here.

As a reminder, the EC50 is the concentration giving half of the maximal effect. What is called Kd is a measure of binding affinity in units of concentration. Higher therefore signals weaker binding.

In assay [1] the target is T1, 人TIM-3重组蛋白 (T cell immunoglobulin domain and mucin domain-3) (human, UniProt Q8TDQ0 22-202, limits assumed).
T1 construct: Recombinant protein coated on 96-well plates; The construct is not described; also called TIM-3蛋白
The assay is described as follows: ELISA, coated TIM-3 recombinant protein, serially diluted nanobody, anti-his detection, GraphPad least-squares fit.

Assay [2] concerns the target T1, 人TIM-3重组蛋白 (T cell immunoglobulin …). The experiment in a line: same number as the ELISA EC50 of paragraph 67, here called KD.

B1: NbR2G3 (抗人源T细胞表面抑制性分子TIM-3的特异性纳米抗体) (VHH)
VHH: QVQLVESGGGLVQAGGSLRLSCAASGRTISNYNMGWFRQAPGKEREFAAITRSGGSTYYADSAKGRFTISRDNAKNTVYLQMNSLKPDDTAVYYCDAIPEGLVGRNLGYWGQGTQVTVSS
With B1, the EC50 in assay [1] turned out to be 76 nM. Moreover, the affinity in assay [2], expressed as Kd, was 76 nM.
